± gives the uncertainty stated by the source.
experiment: amyloid nucleation score (Sup35N fusion, yeast selection) (log enrichment); library NNK1; higher = more nucleation; inactive = no reads after selection
In short: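 Random libraries were run with three technical output replicates. In each, psi-negative yeast expressing Sup35N fused to peptides of 20 random codons were induced 24 hours with 100 μM copper sulfate and grown 7 days at 30°C on medium lacking adenine and uracil, and input and output plasmid inserts were Illumina-sequenced. The nucleation score is the DiMSum log enrichment of output over input reads, centred on the mode score of non-aggregating sequences, and sequences under 100 input reads were excluded.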

Row | Substance | amyloid nucleation score
1 | QSLSLVVPDIVMIKTPN | inactive
2 | MFISIGLPPQRRQDSHGWGG | 0.532 ± 0.37
3 | FGLVAGRR | -0.188 ± 1.2
4 | FWIEGP | 0.564 ± 0.9
5 | THTRCLLVW | 0.216 ± 0.46
6 | NCIGMFAIDLTKDQFRGDFR | 2.73 ± 0.31
7 | RVVVCRWVDRYGIAASGAIT | 0.643 ± 0.54
8 | WLVAHAPGH | 0.471 ± 0.62
9 | VSMATAVF | 1.22 ± 0.64
10 | RNSITEIPCPEMYSNNRLAF | 1.13 ± 0.12
11 | SFYYWHPIALVWYGGARYKC | 1.35 ± 0.43
12 | TVIIWDENIWYFGAYAW | -1.53 ± 0.83
13 | PNTSEWTDWCRVLVEWGQGS | 0.394 ± 0.18
14 | NMFAWV | inactive
15 | NDEQAVQFNIGETGVSYCFL | 0.162 ± 0.77
16 | NWTIHVDNSGHVIRINTHYW | 6.72 ± 0.074
17 | ILMMPLIESCMEVLGHPS | 0.873 ± 0.51
18 | QIVCGSMWMLDKI | -0.297 ± 0.49
19 | SSNFLRILIGTFVRYRV | 0.073 ± 0.37
20 | LFHRIV | -0.353 ± 0.54
21 | SLATEYCSPFNINRFHLVSI | 1.78 ± 0.29
22 | QWSDS | -0.267 ± 0.41

Row | Substance | amyloid nucleation score
23 | TPCLKQLLLSSLILEGP | -0.6 ± 0.64
24 | SATTIFFRYSKIREFRLVFG | inactive
25 | GSTYR | -0.482 ± 0.51
26 | FQGTIR | 0.193 ± 1
27 | FVLGDCCDIFSSYNQIMYIS | 3.26 ± 0.12
28 | FSACLSNIYD | inactive
29 | SFVIFCRKGNWEWDD | -0.671 ± 0.37
30 | GGRNWFYRALR | 0.362 ± 0.63
31 | AELILFIVLELMKRAFLSS | -0.795 ± 0.4
32 | SVSYTPVLHCCYCIMKWNPW | 5.19 ± 0.062
33 | HSGTVVYNMEMKKINSCYLL | 2.58 ± 0.1
34 | YMNIVDVLAWGDRWVLLVWK | 0.425 ± 0.48
35 | DWFLTLAKVYSLNGQVFRMR | inactive
36 | WLHIPYS | 0.547 ± 0.61
37 | AMLSIVSISAS | 1.39 ± 0.69
38 | STNACRPVMAQGDHGLSVLR | 0.283 ± 0.6
39 | RSFDLRSSTTLERLFFHMCA | -0.493 ± 0.88
40 | VRVPLRSKMSNPRLMSRQAA | 0.089 ± 0.49
41 | GSARYCSYCWRTSDITWIIH | 1.71 ± 0.13
42 | IEFLAILLVAAMVQ | -0.345 ± 1.2
43 | FVKGRGNKTQVWHESVYKDA | -0.203 ± 0.54
44 | CANGLLRDLVQAI | 0.547 ± 0.61

Row | Substance | amyloid nucleation score
45 | MWGARLRVWPGYERLSAFNH | -0.552 ± 0.44
46 | QIYVIICLMFSDIGMHIAYV | inactive
47 | KAHRWDGRIFN | -1.27 ± 0.55
48 | AHTLSYVFWLYHMDQCVLFV | -0.127 ± 1.4
49 | GNSWTSVVLHYFGSFSWGVT | inactive
50 | LTTPSFYLAGCSSS | -0.059 ± 0.36
51 | FCSLGKFGSRKCF | 1.07 ± 0.61
52 | PSGWTFSRGLSCDNVSRLSS | 1.05 ± 0.61
53 | EEQVDLIWLMYGAYHVCVMW | 0.416 ± 0.43
54 | VFLYFIVLNANHCFIMPEHF | 3.42 ± 0.089
55 | MQKYPIRGRR | 1.64 ± 0.23
56 | PMMMKIVKHDIVFSLEFHLI | inactive
57 | GNWGNGSGTCLCTSSFYCRL | 2.78 ± 0.14
58 | ATMCVTLIWCYSSKQRMYKK | 1.08 ± 0.15
59 | FMAGNFSFFLRRNA | inactive
60 | NGKDFWMSGRYAYVSMHFDR | 1.13 ± 0.31
61 | CFLIVHLNSRSDTCHEGSEC | -0.081 ± 0.54
62 | DLWWGRVRYG | 2.64 ± 0.097
63 | CLNTMWRKPVEAREM | 0.189 ± 1
64 | DSKLLSPDFRGRLIYRIFDD | -0.101 ± 0.46
65 | MVIHP | 3.57 ± 0.087
66 | VVCRCTYFRLITGDSSL | -0.136 ± 0.8

Row | Substance | amyloid nucleation score
67 | CIDMFNLLNLKHASYWVVVY | -0.563 ± 0.52
68 | VKTYRPVSRGAKNKVRLAQG | 0.642 ± 0.49
69 | TYIFVIPHLVRSTDWTLFAE | 0.017 ± 0.33
70 | IKLHSEGRIYHINFACRSVC | 0.199 ± 0.24
71 | NHFFCGLGNYLSAVFIVIRK | -0.159 ± 1.4
72 | YDLRNICTSTLMSHVNRFYV | -1.22 ± 0.83
73 | HHIRCRVRIQNNPS | 0.368 ± 0.55
74 | SVMDCSFFVLPLCFGCDQKF | -0.987 ± 0.46
75 | CLAGGYSGNAEGMIIETRAK | -0.171 ± 1.7
76 | CGGYSTTCSLTWEILASNRL | 0.675 ± 1
77 | VRLIRGGFDGHADNAVCRWQ | 0.279 ± 0.7
78 | STDVEGRFTEMLSELMLYVD | inactive
79 | SRVSTFGWIIRSEYYFFWAW | 0.666 ± 0.32
80 | AFVEVFHQGLLRSAMSQMVS | -0.378 ± 0.74
81 | YDQGVPTDVLILIAIEHQLS | 5.53 ± 0.077
82 | ALLHVNLIVGNYTSGG | 3.28 ± 0.13
83 | GKLVVFNFL | 8.483 ± 0.048
84 | YFVLKCSC | 2.05 ± 0.49
85 | YNRIIYYCGVM | 0.782 ± 0.97
86 | VMHYYTSVYDVNYVRYSPPW | 1.16 ± 0.35
87 | LWSFIGTGLITNMCISREFK | 0.743 ± 0.16
